From patent publication EP1234033B1

Target: FGF receptor-3c on human osteosarcoma cell line (ATCC, CRL 1543) (human) (UniProt P22607)
Assay: cell-based or functional assay

Chain of UniProt P22607 (P22607 23-806): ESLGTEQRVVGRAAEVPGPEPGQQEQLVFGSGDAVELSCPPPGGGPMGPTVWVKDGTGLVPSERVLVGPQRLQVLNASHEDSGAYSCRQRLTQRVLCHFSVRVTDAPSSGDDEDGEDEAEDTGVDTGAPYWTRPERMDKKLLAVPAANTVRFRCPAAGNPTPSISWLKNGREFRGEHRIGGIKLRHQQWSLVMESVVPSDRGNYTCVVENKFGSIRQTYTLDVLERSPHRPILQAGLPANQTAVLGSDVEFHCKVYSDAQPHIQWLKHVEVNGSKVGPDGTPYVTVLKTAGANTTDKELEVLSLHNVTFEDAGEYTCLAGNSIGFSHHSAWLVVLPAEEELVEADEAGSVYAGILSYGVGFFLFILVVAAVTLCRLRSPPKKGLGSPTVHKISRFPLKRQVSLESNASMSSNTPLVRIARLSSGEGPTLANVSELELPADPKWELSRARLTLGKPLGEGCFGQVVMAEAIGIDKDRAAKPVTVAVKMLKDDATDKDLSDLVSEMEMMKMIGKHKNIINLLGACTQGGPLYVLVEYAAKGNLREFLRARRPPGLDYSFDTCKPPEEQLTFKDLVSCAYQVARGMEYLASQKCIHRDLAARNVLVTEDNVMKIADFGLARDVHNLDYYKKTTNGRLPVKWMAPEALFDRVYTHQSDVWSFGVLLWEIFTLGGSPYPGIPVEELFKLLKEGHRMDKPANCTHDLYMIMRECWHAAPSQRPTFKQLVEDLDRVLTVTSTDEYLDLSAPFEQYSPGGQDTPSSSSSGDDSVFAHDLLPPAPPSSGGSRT

## FGF-18-saporin conjugate
  LD50 (sensitivity of cell line to the FGF-18-saporin conjugate): < 1 nM
